Results reported in the DeepSol protein solubility set.

Assay: soluble on expression in E. coli; label from the status in PepcDB or PDB records

Sequence | soluble on expression in E. coli
MATPYVPVPMPIGNSASSFTNNRNQRSSSFGSVSTSSTSSKGQLEDSAVGSLKQTNVQDQMDSASSMCGSPLIRTKFTGTDSSIEYSARPREAEEQHPEAVNWEDRPSTPTILGYEVMEERAKFTVYKILVKKSPEESWVVFRRYTDFSRLNDKLKEMFPGFRLALPPKRWFKDNYNAEFLEDRQLGLQAFLQNLVAHKDIANCLAVREFLCLDDPPGPFDSLEESRAFCETLEETNYHLQRELLEKQKEVESLKKLLGEKQLHIDALETRIRTLSLEPGASLYVSRAEGGQILRVEPSVLQVNRDVLDEESRADHKPHFNSREAGSVIAGIEVAQLAYNAEDD | soluble
SFELPALPYAKDALAPHISAETIEYHYGKHHQTYVTNLNNLIKGTAFEGKSLEEIIRSSEGGVFNNAAEVWNHTFYWNCLAPNAGGEPTGKVAEAIAASFGSFADFKAQFTDAAIKNFGSGWTWLVKNSDGKLAIVSTSNAGTPLTTDATPLLTVDVWEHAYYIDYRNARPGYLEHFWALVNWEFVAKNLAA | soluble
MAHHHHHHMSCITGITYLSSADINALSKGAGAGSSSGSRGTFVVREGDYVTGTITNVQGGSTPGIRLATSRGVTAFIAAVDICDEAMRVDLLEYIRRSEQLRDWNRHENGDARPPERAEAPVWLRRGALLQGTVSRCVWARCELHLQWCRPREELAGSGDDNGEKETAMPSYGNMERGGASSSVNSLNTAQVEQQVRVFATKMSRHPLFRDVSKNGAADMLRDKEIGESLLRPRTASVHRVVCEVKVGSNATNHWVISEERHANGQFYYKVEDRVVDRQWEFTDVDDFLCNFVEPMVKLIQSIRVHRRFEDSTEYVQAALDAQREVSGGFAYAFAETESKRHLYQVYSSGGNETYHFPLHITSEFIYIRLPFFHDGKASNKWVPCKSAEKVSETVKNYARAMSKRSVNGELH | soluble
MAEHDLTARMAGHLDCHLVLPLLEFLQERHLYPEEEILEAKIRLLRGTNMVDYAMDIHKSRYGTDDVPEDMVKRRAEVVSRLTSLGEAIDNIHQNQQIGPDQIETLYQYAKFQFDCGNYSFAAQYLHQYRALCTNIERSLSALWGKLAAEILMQNWDVALEELNRLKEIIDSKNFSSPLNQLQNRIWLMHWSIFIFYNHENGRNGIIDLFFQERYLNAIQTNAPHLLRYLATAVVVNKRRRNMLKELIKVIQQEQHSYKDPITEFLECLFVNYDFDGAQQKLIECEEVILNDPFLGKRIEEGNSITVPLRDEFLENARLFIFETYCRIHRSIDIGMLSQKLNMRYDEGELWIMNLVRNSKLDAKIDSVSGTLIMTTNHVNIHEQFIESLKNLNMRTSMLAKNIVEPAQAMQQATR | not soluble
MGSDKIHHHHHHLKKITNFRSLGGYQNAHGQMVKDGLIFRSGQLFELEDDQSHYLGQTLGIKHIVDMRSDDERTEFPDTVWEGADYAVLDILKDATANNASLGRMITEKGNVHENMLATYEQLALSDSAKTGYRQFIQGLLRPNEPTIFHCFAGKDRTGVGAALILKILDVSEQDIMADYLQTNAERTVANEEILAGLKERGFTDQQLKSIGEALKVDADYLRRYFQVIDQQFGPFQQYLREGLKLSAGEIAQFRDLYLQK | not soluble
MEEDSREDDFNGKIRRSLCEWLGPFEEFHDRVAKNQQTSRHGLIRSKMKPRPSPFVTLQAPPHESPSHVPVHVALQSMKNLVDERITEITHHEFADLKKGMNNVKSSATSSTDKKRKIGEDEDSQIEVKRKKESRNYIPPSTPDSGTHSTESDMIEEPNSDEVAAMLSIMKTLDTPKLSPLPKDFKVVCKEDEQPGPSSSKFPSDSSVSAASTSRESTPEPKLLGTLRIKALKPERVQKLIELAKTRGKLTDVVEVEKKVVEKVVEKQEKRVLEPLPPPPRPPSVPAVPAVPTPSRDPILGPGSGSARNSPLPPQKPANKTVQSLQGLQGSSRTMSPSPRNIRSTTPSVPSRPPSALSTHSHVETEVAAVATTSAPAEASAAVKPRFVCQWSHARLKKAQRVPFPDPSSTSTKTKGEFYHALAKDWKSKADNSKDRVTRPLNYMLSSVFFVLEAIWKADKERTTQSKMQCASIYRDTYELLGVAVFQGVRDTDDSLAVHILPRVKVIGQVMLAVMQYQMYIFRSEQAIKTMSRLDMREVSESIDIRPVSRASDSSSVHSQHLTVPTNKAVTSVAHGTPKPSPSAGSTPSGPTGAPVIPWIASIQACQNMVSMPQIVYDAYKSQLKTANGLMLASRYWEDSKTLSNIIDSGTFVKDVESIVGKSISMDMQFADLATFVLTAVGSLKAEYEEEQKQPAKPILAKVKKGLDLAIRTGTFHSDRPPPVHRPSNNTPDGKARRKQ | not soluble
GSGATSAAGKPQETFLDFNESPYGPSAKARAAMQRAAALCGRYDYDAQDALVGLFAKQNGIPAECVHAYCGSRQPLQYAVAAFTGKERGLVIADPSYDSVVGAAQAQGAKVAAVPLDAEAAHDIERMLAAAQRDAGLIYICNPNNPTGTLTPHERIVRAIERKPERSVVLVDEAYIHFSDAPSVVGLAVQRQDVLVLRTFSKLYGMAGARLGLAIGHPQLLARLERFGGHNVVPSPTAHAGLESLRDDDLVPRRKQQNAEVRERTIAWLRQQGFRCTASQSNCFMVDMRRPAELVIAELEKQRVHVGRPWASWPNWVRVTVGSEEEMQAFR | not soluble
MGSDKIHHHHHHMGVIQKIKNLVTRSKYVMTTQSLTNITDHPKIAISKLEYDRITTNLKYYKSDWDSVLYLNTDGETKKRDLNHLPIARTAAKKIASLVFNEQAEIKVDDDAANEFISETLKNDRFNKNFERYLESCLALGGLAMRPYVDGDKVRVAFVQAPVFLPLQSNTQDVSSAAVVIKSVKTINGKEVYYTLIEFHEWQSSDDYVISNELYRSDDKAKVGSRVPLSEVYKDLKDEAKVTDVTRPIFTYLKTPGMNNKDINSPLGLSIFDNAKTTIDFINTTYDEFMWEVKMGQRRVAVPESLTALTVRTADGDVVPRPRFESDQNVYIRMGGRDLDSSAIQDLTTPIRADDYIKAINEGLSLFEMQIGVSAGLFSFDGKSMKTATEIVSENSDTYQMRNSIVTLVEQSLKELVISIFEIAKAYDLYQSEVPSMDNISISLDDGVFTDRDAELDYWIKVVNAGFGTREMAIQKVLNVTEEKAQEIAAEINTGIVDEINQQRTDTHLYGE | not soluble
MSSFFPLPPAIGKSTGCGVRDESQSLVVWAIEDYSIPESIDPDMINLKIETAIVKKFNLRSSAVVTTWIFGSAENAWLAKSKVKLWESEFRVSLHKGGDKRARLNMMLADVIYYVWNWKAPTNLAVLTENKEEMEQDPKFFRFRQALENKGFFVAVEHPETLINQETAVEDPPDDSPIPYYPSDNPQKLAFWYKEDSEAYRAKYKQVRGTKRTI | soluble
ELLPDVRLLYGETPFARTPVMYEPGIIILFSGHKIGYINERVFRYDANEYLLLTVPLPFECETYATSEVPLAGLRLNVDILQLQELLMDIGEDEHFQPSMAASGINSATLSEEILCAAERLLDVMERPLDARILGKQIIREILYYVLTGP | not soluble
MFVLPVRFERSPRLHPMLSESPHPVGTRVVVQGKRGPEIATVRGEASEPERQARYGAVLRAATPEDLATWEDLHRRAEDLKWLLRARARERGLPVKLVAVEFTLDESLVTISYSADERIELSSLIGELRAHTRARVNFAAIGPREQAQMLGTLGACGRENCSSTHLQDFAPVSIRMARDQQLPLNPEKLSGPCGRLLCCLQYEHEQYLDLLRDLPRKNAKMCHEGSGACGKVTKLHPLAGTVDLQTDQGLLQDVPASELRRLPEQAAARSPRREPREAPASTDLEHHHHHH | soluble
MAVKFFGQFLVEKGVVSRETLLQAIELQESVNLSFGATSLAMGILTEADIERIHNAQRIEDLRFGDMAVKLGLLTSEQMMQVLTRQKNTHLYIGEALVKVGSFQADELPKYLEEFKADQAQYATDTVVIPTGVSEPKIWEMVADLSYKMLTRVALLVFRPEPCFVADRVPAMDVYATMDFTGDISGRYFMGVTAATQKKIAKAILKEPNVDNEPKEILDDTVMEFVNVALGNIAAKAAQSGKSMEIAPPEIIEAPDGIQVPDGHKALCFPVCLSDGDRIELAVFIQQLEHHHHHH | soluble
MGSDKIHHHHHHLAKIKTKFVCQSCGTESPKWMGRCSGCGEWNTMVEEVVEEKKARRGSAFVHTTTKQLKPERLSNILSQEESRVFTGSGEFDRVLGGGIVPGSMVLVGGDPGIGKSTILLQTSARLAARGEKVLYISGEESLKQTKLRAERLGLPTQDLFVLSETDMNMIERVVDEENPAFLIIDSIQTVYIDEIQSAPGSVTQVRECTAMLMKIAKSRGIAIFIVGHVTKQGSIAGPRLLEHMVDAVLYFEGERHHTFRILRAVKNRFGSTNEIGIFEMRESGLEEVLNPSEIFLEERTSGVSGSTIVASMEGTRTVLVELQALISPTSFGNPRRMATGIDQNKVALLMAVLEKRSGLLLQTQDAYLKAAGGVKLDEPAIDLAICVAVASSFRDKPTRPTDVVIGEVGLTGEVRRVSRIEQRVAEAAKLGFTRAIIPKNNLGGWTYPPGITVIGVESVDEALRETIPF | not soluble
MPEPTADAPTVPKARSCPFLPPDGIADIRAAAPVTRATFTSGHEAWLVTGYEEVRALLRDSSFSVQVPHALHTQDGVVTQKPGRGSLLWQDEPEHTSDRKLLAKEFTVRRMQALRPNIQRIVDEHLDAIEARGGPVDLVKTFANAVPSMVISDLFGVPVERRAEFQDIAEAMMRVDQDAAATEAAGMRLGGLLYQLVQERRANPGDDLISALITTEDPDGVVDDMFLMNAAGTLLIAAHDTTACMIGLGTALLLDSPDQLALLREDPSLVGNAVEELLRYLTIGQFGGERVATRDVELGGVRIAKGEQVVAHVLAADFDPAFVEEPERFDITRRPAPHLAFGFGAHQCIGQQLARIELQIVFETLFRRLPGLRLAKPVEELRFRHDIVFYGVHELPVTWHHHH | soluble
AENAKIKFDGVDVERDSNVINDLVPNVTLSLKKPSSDMVEAKIEPDYEGIKRVLLDFIGAYNEVLAEINIVSSNEDQPNNQKSNIVEELTYLSDSQKEEAYKNLGILRSEFLLKNLKSKLESIIFKPYVTSDPNFSIINQMGVFTNSISSSGGLSRYLRLDEKKFDESIRNNIDNVRELFLYDLNGDRVYDNGIAKMLGDCLSPLVASGGVIYNKIKNYDLKIFNQKNKVEDYKKKYEDRERKVEGELNTLDFTVKRMKD | not soluble
MGSDKIHHHHHHMHSLQQLKSQLLSYHAGILGEEYVKKSAVFIPLVEKDDGVHVLFEVRAHTLKQQPGEICFPGGRIDPEDASPEEAAIRETSEELGIPSSVIAPITSLDVLVTPFRGIIYPVIGSIPHKNDYPLNQAEVDHVFTVPIDHFISHPPEQYRINVHFEPGAGFPIERIANQSAYQKSTRQITESFYYYQSYVIWGLTAKILRHVITILKPS | not soluble
MGSDKIHHHHHHMKVDYHIHLEEGPYSIGWLAKINESLQHYEPLKEEKHSMEWLVKIQERLQRRVNEGPFTTKWIDLYLEEALRKGIKEVGIVDHLYRFYEAKEYYEKYVDISDSGLGRLQKEWLDQVRVASLHDFTKAIEEAKERWSKRGVTLKLGIEADYFIGGEQQLQSLLALGDFDYVIGSVHFLNGWGFDNPDTKEYFKEHDLYALYDTFFKTVECAVRSELFDIIAHLDNIKVFNYRLDENEQISYYKKIARALVETNTATEINAGLYYRYPVREMCPSPLYLQVLAKHEVPITLSSDAHYPNDLGKYVEENIKTLRNHDIAHLATFTKRVRTMRLLEEVTISK | not soluble
